Here are results for three molecules from publication PMC4264578.

Common to all, as to test: EMSA
A general note: A gel shift assay detects complexes by their altered migration in electrophoresis.

For data set [1], the target named is T1, GST-SUV39H1 (UniProt O43463 1-412).
T1 sequence: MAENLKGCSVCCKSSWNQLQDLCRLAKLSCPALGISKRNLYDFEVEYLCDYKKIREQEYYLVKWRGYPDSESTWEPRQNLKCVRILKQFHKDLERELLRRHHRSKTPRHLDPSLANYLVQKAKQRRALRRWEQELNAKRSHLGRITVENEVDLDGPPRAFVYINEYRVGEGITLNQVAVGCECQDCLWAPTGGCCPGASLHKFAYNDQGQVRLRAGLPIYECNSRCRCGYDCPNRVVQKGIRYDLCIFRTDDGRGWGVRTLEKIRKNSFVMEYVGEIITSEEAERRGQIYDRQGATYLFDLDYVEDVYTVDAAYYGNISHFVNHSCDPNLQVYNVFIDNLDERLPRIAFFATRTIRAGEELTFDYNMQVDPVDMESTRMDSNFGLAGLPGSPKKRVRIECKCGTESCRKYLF

The target in data set [2] is T1, GST-SUV39H1. The source holds these as a separate data set.
In data set [3] the target is T1, GST-SUV39H1. This is another data set of the same source.

Read-outs that look alike come from different tables or passages of the source.

B1: (UUAGGG)7 TERRA RNA (ssRNA)
RNA: UUAGGGUUAGGGUUAGGGUUAGGGUUAGGGUUAGGGUUAGGG
In the case of B1, in the data set with GST-SUV39H1 [1], the binding result is reported as “binds”.

B2: (TTAGGG)10 DNA (ssDNA)
DNA: TTAGGGTTAGGGTTAGGGTTAGGGTTAGGGTTAGGGTTAGGGTTAGGGTTAGGGTTAGGG
Turning to B2, the binding result in the data set with GST-SUV39H1 [2] was “no binding”.

B3: (UUAGGG)10 TERRA RNA (ssRNA)
RNA: UUAGGGUUAGGGUUAGGGUUAGGGUUAGGGUUAGGGUUAGGGUUAGGGUUAGGGUUAGGG
On to B3, for which the binding result with GST-SUV39H1 [3] is given as “binds”.
